Test results: patent publication US7807384B2, “Low density lipoprotein binding proteins and their use in diagnosing and treating atherosclerosis” (Boston Heart Foundation, Inc., priority 1996, dated 2010)

Assays:
[1] = tested on: ballooned deendothelialized rabbit aorta; assay: Radiolabeled LDL accumulation in ballooned deendothelialized abdominal aorta after active immunization; assay type: in vivo; settings: immunized with RIBI adjuvant; corrected for dosage and percent reendothelialization; 24 hr after 125I-LDL
Procedure: Immunity was induced in male New Zealand White rabbits (Hazelton Research Products, Denver, Pa.) as follows: A mixture of purified human recombinant LBP-2 or BHF-1 peptide (1 ml; 1 mg) and RIBI adjuvant (RIBI ImmunoChem Research, Inc., Hamilton, Mont.) was injected subcutaneously at 2-5 sites along the dorsal thoracic and abdominal regions of the rabbits. Blood was collected by venipuncture on days 1 (preimmune bleeding), 35, 63, and 91. Booster injections were administered on days 28 (500 μg; SC), 56 (250 μg; SC), and 84 (125 μg; SC).
On day 93, the abdominal aorta of immunized and control rabbits was deendothelialized using a Fogarty number 4 embolectomy catheter (Chang et al., Arteriosclerosis and Thrombosis 12:1088-1098 (1992)). Four weeks after ballooning, rabbits received a bolus injection of ^125I-labeled LDL (1 ml; i.v.). […] Blood samples were centrifuged for 30 min at 2000 rpm ([…]) and total activity present in the serum was determined using a Gamma counter. Total TCA precipitable counts were determined by addition of TCA to the serum to a final concentration of 10% followed by incubation for 10 min at 4° C. Serum samples were then centrifuged (2000 rpm; 30 min; […]) and total activity present in the supernate was determined. TCA precipitable counts were calculated by subtraction: total soluble counts minus counts present in the supernate after TCA precipitation. […]

[2] = target: T1, LDL (Homo sapiens, UniProt P04114); assay: Affinity coelectrophoresis (ACE) assay of LBP binding to LDL; settings: LDL 540 to 14 nM cast in gel
T1 construct: LDL was prepared from the plasma of normolipemic donors; from tissue; host or cells: blood plasma of normolipemic donors, density ultracentrifugation
Procedure: (§1) Analysis of the affinity and specificity of recombinant rabbit LBP-1, LBP-2 or LBP-3 binding to LDL was carried out using the principle of affinity electrophoresis (Lee and Lander, Proc. Natl. Acad. Sci. USA 88:2768-2772 (1991)). Melted agarose (1%; 65° C.) was prepared in 50 mM sodium MOPS, pH 7.0; 125 mM sodium acetate, 0.5% CHAPS. A teflon comb consisting of nine parallel bars (45×4×4 mm/3 mm spacing between bars) was placed onto GelBond film (FMC Bioproducts, Rockland, Me.) fitted to a plexiglass casting tray with the long axis of the bars parallel to the long axis of the casting tray. A teflon strip (66×1×1 mm) was placed on edge with the long axis parallel to the short axis of the casting tray, at a distance of 4 mm from the edge of the teflon comb. Melted agarose (>65° C.) was then poured to achieve a height of approximately 4 mm. […] LDL or HDL samples were prepared in gel buffer (50 mM sodium MOPS, pH 7.0, 125 mM sodium acetate) at twice the desired concentration. Samples were then mixed with an equal volume of melted agarose (in 50 mM MOPS, pH 7.0; 125 mM sodium acetate; 50° C.), pipetted into the appropriate rectangular wells and allowed to gel. The binding affinity and specificity of LBP-1 and LBP-3 was tested using several concentrations of LDL (540 to 14 nM) and HDL (2840177 nM). A constant amount (0.003 nM-0.016 nM) of ^125I-labeled LBP-1, LBP-2 or LBP-3 (suspended in 50 mM sodium MOPS, pH 7.0; 125 mM sodium acetate; 0.5% bromophenol blue; 6% (wt/vol) sucrose) was loaded into the slot. Gels were electrophoresed at 70 v/2 hr/20° C. At the end of the run, the gels were air dried and retardation profiles were visualized by exposure of X-ray films to the gels overnight at −70° C., with intensifying screens.
Rabbit and human LBP-2 contain a long stretch of acidic amino acids at the amino terminal (rabbit LBP-2 amino acid residues 338 through 365 and human LBP-2 amino acid residues 329 through 354). […]

[3] = tested on: apo E knockout mice; assay: Aortic cholesterol content (cholesterol extraction method) in LBP-immunized apo E knockout mice; assay type: in vivo, mouse; settings: for Arterial Wall Cholesterol: apo E mice
Procedure: (§2) Separate immunization experiments were performed with each of LBP-1, LBP-2, and LBP-J. Immunity was induced by injecting apo E knockout mice with the LBP protein (LBP-1, LBP-2, or LBP-3) together with an RIBI adjuvant (RIBI ImmunoChem Research, Inc., Hamilton, Mont.). Apo E knockout mice (Jackson Laboratories, Bar Harbor, Me.) are hyperlipidemic and thus a model for human atherosclerosis. Apo E knockout mice have high levels of plasma cholesterol and develop naturally-occurring atherosclerotic-like lesions.
(§3) Four week old apo E knockout mice (Jackson Laboratories, Bar Harbor, Me.) were ear tagged, randomly assigned to different cages and weighed. Body weights were determined weekly. Animals were allowed to habituate for 1 week. Normal rodent chow was provided ad libitum and animals were maintained in a 12:12 light:dark cycle. The following four groups of mice were treated with either recombinant LBP proteins (40 μg of recombinant protein/mouse) plus RIBI adjuvant or RIBI adjuvant alone (control group).
(§4) Apo E knockout mice were sacrificed at 26 weeks of age. The mice were anesthetized with methoxyfluorane and exanguinated via cardiac puncture. A midline thoracotomy was performed, a cannula inserted into the right ventricle and perfusate allowed unrestricted flow via an incision into the right atrium. The mice were perfused with saline, followed by 10% phosphate buffered formalin until fasciculations stopped. At this time, the aorta was exposed and adventitial fat removed in situ. The aorta was then removed from the heart down to the iliac bifurcation and placed in 10% phosphate buffered formalin overnight.
A second analysis was done to measure aortic atherosclerosis by a cholesterol extraction method whereby cholesterol is determined as a unit weight of artery. This method may be more accurate in measuring lesion size than attempting to measure the thickness of many sections. Specifically, the weight of an artery was measured, then the cholesterol was extracted. Aortic cholesterol content was then measured by gas-liquid chromatography. The amount of cholesterol per unit weight of artery was then determined.

[4] = target: T1, LDL; assay: ACE competition: cold LBP versus radiolabeled LBP binding to LDL; settings: fixed cold LDL and radiolabeled LBP, increasing cold recombinant LBP
Procedure: Competition studies were carried out using fixed concentrations of cold LDL and radiolabeled LBP-1 and increasing amounts of cold recombinant LBP-1 (6-31 μM). The ACE assay samples and gel were prepared as described herein.
Competition studies using fixed concentrations of cold LDL and clone 26 derived radiolabeled LBP-2 and increasing concentrations of cold recombinant LBP-2/clone 26 and LBP-a/clone 45 were carried out.

[5] = tested on: LDL receptor negative knockout mice; assay: Lesions in LBP-immunized LDL receptor negative knockout mice; assay type: in vivo, mouse; settings: P>0.05
[6] = tested on: HDL; assay: Affinity coelectrophoresis (ACE) assay of LBP binding to HDL; parameters: species or system human; settings: HDL cast in gel
Procedure: as §1, with “A constant amount (0.003 nM-0.016 nM) of ^125I-labeled LBP-1, LBP-2 or LBP-3 (suspended in 50 mM sodium MOPS, pH 7.0; 125 mM sodium acetate; 0.5% bromophenol blue; 6% (wt/vol) sucrose) was loaded into the slot. Gels were electrophoresed at 70 v/2 hr/20° C. At the end of the run, the gels were air dried and retardation profiles were visualized by exposure of X-ray films to the gels overnight at −70° C., with intensifying screens.” left out

[7] = tested on: apo E knockout mice; assay: Aortic lesion area (Sudan IV staining) in LBP-immunized apo E knockout mice; assay type: in vivo, mouse; settings: for Effect of immunization on lesions / lesion area: apo E knockout mice; for Lesion Area % Coverage: apo E mice, 26 weeks of age, control 9.40
Procedure: as §2, §3, §4
The aorta was stained as follows: after a brief 70% ethanol rinse, it was immersed in a filtered solution of 0.5% (weight/volume) Sudan IV in 35% ethanol/50% acetone with continuous shaking for 10 minutes at room temperature. Unbound dye was removed by incubating the aorta in an 80% ethanol solution with shaking until the background color was clear. The vessel was then rinsed in distilled water, placed in physiological saline and opened longitudinally from the aortic arch down to the iliac bifurcation. The vessel was pinned out and photographed. Photographs were then digitized using an Astra 1200S scanner (UMAX Technologies Inc., Freemont, Calif.) and a commercially available graphics program (Canvas; Deneba Software, Miami Fla.). Total and lesion areas were determined using the signal processing toolbox of MATLAB (The Mathworks Inc., Natick, Mass.). Percent involvement was calculated by dividing lesion area by total area.

[8] = Body weight and serum lipids of LBP-immunized apo E knockout mice; assay type: in vivo, mouse; settings: P>0.05
Procedure: as §3
Blood samples were analyzed for total cholesterol, HDL cholesterol, and triglyceride concentration with a commercially available total cholesterol and triglycerides assay kits (Sigma; St. Louis Mo.) using an ELISA format. HDL concentration was determined after Apo B containing lipoproteins were precipitated using heparin/MnCl2.
Data were analyzed using T-tests and Wilcoxons.

T1 sequence (P04114 28-4563): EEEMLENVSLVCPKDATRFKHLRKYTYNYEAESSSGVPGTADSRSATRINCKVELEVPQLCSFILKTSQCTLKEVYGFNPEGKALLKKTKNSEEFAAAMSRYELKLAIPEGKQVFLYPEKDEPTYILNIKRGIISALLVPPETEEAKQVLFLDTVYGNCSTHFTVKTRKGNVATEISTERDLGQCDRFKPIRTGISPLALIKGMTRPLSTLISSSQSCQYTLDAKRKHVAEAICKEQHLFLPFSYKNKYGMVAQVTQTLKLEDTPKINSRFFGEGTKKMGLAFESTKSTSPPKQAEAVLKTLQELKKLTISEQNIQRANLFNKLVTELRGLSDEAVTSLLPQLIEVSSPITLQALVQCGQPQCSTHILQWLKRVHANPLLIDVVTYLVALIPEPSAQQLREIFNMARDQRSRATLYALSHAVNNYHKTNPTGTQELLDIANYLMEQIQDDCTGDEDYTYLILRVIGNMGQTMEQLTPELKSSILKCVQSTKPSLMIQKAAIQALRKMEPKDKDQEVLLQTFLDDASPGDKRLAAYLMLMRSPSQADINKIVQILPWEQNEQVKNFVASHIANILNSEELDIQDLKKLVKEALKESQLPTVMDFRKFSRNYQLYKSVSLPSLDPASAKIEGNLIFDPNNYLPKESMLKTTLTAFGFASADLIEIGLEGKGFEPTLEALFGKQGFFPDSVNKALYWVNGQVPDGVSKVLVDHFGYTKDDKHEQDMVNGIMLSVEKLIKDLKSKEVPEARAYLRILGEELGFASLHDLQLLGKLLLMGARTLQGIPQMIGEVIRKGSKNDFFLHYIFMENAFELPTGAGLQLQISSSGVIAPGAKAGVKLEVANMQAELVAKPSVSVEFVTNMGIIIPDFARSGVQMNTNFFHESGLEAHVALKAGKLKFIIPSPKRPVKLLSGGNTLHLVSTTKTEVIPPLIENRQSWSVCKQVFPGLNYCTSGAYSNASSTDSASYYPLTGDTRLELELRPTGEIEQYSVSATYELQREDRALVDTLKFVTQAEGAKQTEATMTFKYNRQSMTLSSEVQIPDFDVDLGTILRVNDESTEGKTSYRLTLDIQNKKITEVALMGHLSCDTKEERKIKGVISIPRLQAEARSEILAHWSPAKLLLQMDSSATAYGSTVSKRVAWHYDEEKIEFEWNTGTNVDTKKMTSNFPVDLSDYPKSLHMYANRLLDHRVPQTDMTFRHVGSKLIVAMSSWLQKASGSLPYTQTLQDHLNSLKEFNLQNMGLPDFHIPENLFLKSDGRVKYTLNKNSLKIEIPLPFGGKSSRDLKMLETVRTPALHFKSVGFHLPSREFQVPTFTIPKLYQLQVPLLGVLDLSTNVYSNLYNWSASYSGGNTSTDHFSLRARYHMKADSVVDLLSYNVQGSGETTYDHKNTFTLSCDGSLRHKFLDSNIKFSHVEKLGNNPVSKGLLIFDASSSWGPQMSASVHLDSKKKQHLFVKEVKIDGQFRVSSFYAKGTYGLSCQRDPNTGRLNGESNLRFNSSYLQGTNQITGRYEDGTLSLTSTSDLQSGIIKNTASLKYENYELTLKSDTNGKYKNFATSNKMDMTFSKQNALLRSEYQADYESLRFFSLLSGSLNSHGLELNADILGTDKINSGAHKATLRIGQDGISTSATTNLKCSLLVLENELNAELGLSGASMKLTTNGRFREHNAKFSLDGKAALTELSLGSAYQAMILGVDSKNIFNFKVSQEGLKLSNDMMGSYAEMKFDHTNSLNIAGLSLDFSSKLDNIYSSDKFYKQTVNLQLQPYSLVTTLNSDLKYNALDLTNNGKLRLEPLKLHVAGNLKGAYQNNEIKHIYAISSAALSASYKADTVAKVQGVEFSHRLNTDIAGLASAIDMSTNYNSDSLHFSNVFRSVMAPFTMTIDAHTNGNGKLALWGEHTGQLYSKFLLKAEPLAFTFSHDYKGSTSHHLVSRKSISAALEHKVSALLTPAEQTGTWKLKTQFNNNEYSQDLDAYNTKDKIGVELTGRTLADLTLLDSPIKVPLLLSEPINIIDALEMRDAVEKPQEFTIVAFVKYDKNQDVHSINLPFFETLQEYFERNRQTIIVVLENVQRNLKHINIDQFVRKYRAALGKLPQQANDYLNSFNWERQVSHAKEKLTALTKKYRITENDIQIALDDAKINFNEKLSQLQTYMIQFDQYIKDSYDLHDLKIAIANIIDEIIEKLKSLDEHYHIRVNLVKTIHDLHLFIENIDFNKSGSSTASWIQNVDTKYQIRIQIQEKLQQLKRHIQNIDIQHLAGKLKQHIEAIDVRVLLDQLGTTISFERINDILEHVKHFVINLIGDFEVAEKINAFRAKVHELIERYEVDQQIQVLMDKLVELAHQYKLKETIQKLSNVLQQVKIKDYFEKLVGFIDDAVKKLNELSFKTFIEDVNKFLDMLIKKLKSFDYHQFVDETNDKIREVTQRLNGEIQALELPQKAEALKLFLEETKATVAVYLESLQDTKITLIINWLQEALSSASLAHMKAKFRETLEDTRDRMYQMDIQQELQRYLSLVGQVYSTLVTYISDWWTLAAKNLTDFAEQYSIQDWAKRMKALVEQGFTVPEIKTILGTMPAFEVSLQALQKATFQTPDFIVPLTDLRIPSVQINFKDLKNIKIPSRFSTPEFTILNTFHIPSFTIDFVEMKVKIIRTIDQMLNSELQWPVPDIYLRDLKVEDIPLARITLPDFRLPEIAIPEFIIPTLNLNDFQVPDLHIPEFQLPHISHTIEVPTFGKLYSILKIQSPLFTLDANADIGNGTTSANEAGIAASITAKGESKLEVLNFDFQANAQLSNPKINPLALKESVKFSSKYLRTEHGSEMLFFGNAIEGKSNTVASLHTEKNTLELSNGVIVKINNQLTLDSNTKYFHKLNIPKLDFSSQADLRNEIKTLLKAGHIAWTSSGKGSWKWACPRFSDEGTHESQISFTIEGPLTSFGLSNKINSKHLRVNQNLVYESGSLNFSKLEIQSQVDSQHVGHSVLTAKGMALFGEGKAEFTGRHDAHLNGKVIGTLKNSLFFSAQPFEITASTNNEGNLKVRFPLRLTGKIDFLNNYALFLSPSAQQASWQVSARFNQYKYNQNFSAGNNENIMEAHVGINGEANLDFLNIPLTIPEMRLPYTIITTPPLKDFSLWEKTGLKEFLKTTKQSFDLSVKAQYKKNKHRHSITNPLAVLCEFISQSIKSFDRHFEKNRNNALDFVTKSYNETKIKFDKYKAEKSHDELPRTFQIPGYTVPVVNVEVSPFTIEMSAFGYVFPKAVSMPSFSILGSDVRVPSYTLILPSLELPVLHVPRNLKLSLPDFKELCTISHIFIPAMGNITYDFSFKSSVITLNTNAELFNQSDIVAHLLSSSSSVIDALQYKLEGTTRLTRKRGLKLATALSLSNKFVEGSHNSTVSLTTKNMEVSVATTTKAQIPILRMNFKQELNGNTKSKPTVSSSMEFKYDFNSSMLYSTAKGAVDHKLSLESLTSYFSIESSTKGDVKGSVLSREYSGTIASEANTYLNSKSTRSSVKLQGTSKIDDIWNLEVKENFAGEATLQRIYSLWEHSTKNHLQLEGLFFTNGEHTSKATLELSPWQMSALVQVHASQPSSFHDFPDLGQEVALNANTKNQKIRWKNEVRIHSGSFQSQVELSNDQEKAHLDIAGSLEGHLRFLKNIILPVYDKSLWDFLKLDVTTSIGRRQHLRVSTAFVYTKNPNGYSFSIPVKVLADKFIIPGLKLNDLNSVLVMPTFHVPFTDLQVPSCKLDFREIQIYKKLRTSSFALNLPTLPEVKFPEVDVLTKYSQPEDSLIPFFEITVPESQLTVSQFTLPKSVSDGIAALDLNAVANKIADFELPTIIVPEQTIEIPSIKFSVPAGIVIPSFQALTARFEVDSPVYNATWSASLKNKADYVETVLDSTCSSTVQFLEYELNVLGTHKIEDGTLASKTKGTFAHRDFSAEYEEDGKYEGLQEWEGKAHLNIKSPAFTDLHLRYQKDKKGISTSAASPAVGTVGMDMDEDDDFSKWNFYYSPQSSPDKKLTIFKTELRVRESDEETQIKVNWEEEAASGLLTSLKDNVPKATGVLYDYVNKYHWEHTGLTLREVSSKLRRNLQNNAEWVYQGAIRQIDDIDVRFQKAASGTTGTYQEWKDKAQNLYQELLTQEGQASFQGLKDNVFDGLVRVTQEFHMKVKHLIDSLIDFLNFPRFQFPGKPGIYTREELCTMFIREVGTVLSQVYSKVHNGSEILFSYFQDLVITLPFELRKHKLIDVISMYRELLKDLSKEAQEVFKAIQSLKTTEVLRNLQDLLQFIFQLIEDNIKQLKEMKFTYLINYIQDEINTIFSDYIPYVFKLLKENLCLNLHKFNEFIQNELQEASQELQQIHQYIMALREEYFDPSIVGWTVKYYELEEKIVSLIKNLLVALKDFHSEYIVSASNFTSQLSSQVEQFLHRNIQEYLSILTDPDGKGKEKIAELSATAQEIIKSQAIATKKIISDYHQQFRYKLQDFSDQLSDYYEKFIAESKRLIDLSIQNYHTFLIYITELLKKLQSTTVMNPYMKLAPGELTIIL

Inhibition by cold LBP of radiolabeled LBP binding to LDL [4]	Retardation of radiolabeled LBP migration by HDL [6]	Molecule	Accumulation of radiolabeled LDL in ballooned abdominal aorta versus nonimmune-ballooned rabbits [1]	Retardation of radiolabeled LBP migration through the gel by LDL [2]	Arterial Wall Cholesterol ([3]; 26 weeks of age, control 6.33)	Effect of immunization on lesions [5]	Effect of immunization on lesions / lesion area [7]	Lesion Area % Coverage [7]	Effect of immunization on body weight [8]	Retardation of radiolabeled LBP migration through the gel by LDL ([2]; listed as clone 26)	Effect of immunization on arterial wall cholesterol content ([3]; apo E knockout mice, once outliers were deleted)	Arterial Wall Cholesterol ([3]; outliers deleted)
		recombinant human LBP-2: purified human recombinant LBP-2 used as immunogen with RIBI adjuvant (protein) EERVLEKEEEEDDDEDEDEEDDVSEGSEVPESDRPAGAQHHQLNGERGPQSAKERVKEWTPCGPHQGQDEGRGPAPGSGTRQVFSMAAMNKEGGTASVATGPDSPSPVPLPPGKPALPGADGTPFGCPPGRKEKPSDPVEWTVMDVVEYFTEAGFPEQATAFQEQEIDGKSLLLMQRTDVLTGLSIRLGPALKIYEHHIKVLQQGHFEDDDPDGFLG	lower accumulation									
inhibited binding	did not retard	LBP-3: rabbit recombinant LDL binding protein LBP-3 (6-His tag), SEQ ID NO: 5 (protein, listed as Oryctolagus cuniculus, 6-His tag) MKNQDKKNGAAKQPNPKSSPGQPEAGAEGAQGRPGRPAPAREAEGASSQAPGRPEGAQAKTAQPGALCDVSEELSRQLEDILSTYCVDNNQGAPGEDGVQGEPPEPEDAEKSRAYVARNGEPEPGTPVVNGEKETSKAEPGTEEIRTSDEVGDRDHRRPQEKKKAKGLGKEITLLMQTLNTLSTPEEKLAALCKKYAELLEEHRNSQKQMKLLQKKQSQLVQEKDHLRGEHSKAILARSKLESLCRELQRHNRSLKEEGVQRAREEEEKRKEVTSHFQMTLNDIQLQMEQHNERNSKLRQENMELAERLKKLIEQYELREEHIDKVFKHKDLQQQLVDAKLQQAQEMLKEAEERHQREKDFLLKEAVESQRMCELMKQQETHLKQQLALYTEKFEEFQNTLSKSSEVFTTFKQEMEKMTKKIKKLEKETTMYRSRWESSNKALLEMAEEKTLRDKELEGLQVKIQRLEKLCRALQTERNDLNKRVQDLSAGGQGPVSDSGPERRPEPATTSKEQGVEGPGAQVPNSPRATDASCCAGAPSTEASGQTGPQEPTTATA		concentration-dependent, saturable manner	4.48 ug cholesterol/mg aorta	did not have a significant effect	did not have a significant effect	7.14%	did not have a significant effect			
inhibited binding	did not retard	LBP-2: rabbit recombinant LBP-2 clone 26 (6-His tag), contains the acidic region (protein, left off: small tags and cut ends, rabbit recombinant LBP-2 clone 26 (6-His tag), contains the acidic region) PPPPQQPQPPPEGGAARAGGPARPVSLREVVRYLGGSSGAGGRLTRGRVQGLLEEEAAARGRLERTRLGALALPRGDRPGRAPPAASARAARNKRAGEERVLEKEEEEEEEEDDEDDDDDVVSEGSEVPESDRPAGAQHHQLNGGERGPQTAKERAKEWSLCGPHPGQEEGRGPAAGSGTRQVFSMAALSKEGGSASSTTGPDSPSPVPLPPGKPALPGADGTPFGCPAGRKEKPADPVEWTVMDVVEYFTEAGFPEQATAFQEQEIDGKSLLLMQRTDVLTGLSIRLGPALKIYEHHIKVLQQGHFEDDDPEGFLG		concentration-dependent, saturable manner	3.28 ug cholesterol/mg aorta		significant effect	6.01%	did not have a significant effect	concentration-dependent, saturable, manner	significant effect	1.83 ug cholesterol/mg aorta
